Target: T1, tumor-associated antigen RG1 (Homo sapiens (Human), UniProt Q9BUD6 27-331)
T1 construct: Coated directly on 96-well plates at 1 ug/ml; also called RGI
T1 sequence: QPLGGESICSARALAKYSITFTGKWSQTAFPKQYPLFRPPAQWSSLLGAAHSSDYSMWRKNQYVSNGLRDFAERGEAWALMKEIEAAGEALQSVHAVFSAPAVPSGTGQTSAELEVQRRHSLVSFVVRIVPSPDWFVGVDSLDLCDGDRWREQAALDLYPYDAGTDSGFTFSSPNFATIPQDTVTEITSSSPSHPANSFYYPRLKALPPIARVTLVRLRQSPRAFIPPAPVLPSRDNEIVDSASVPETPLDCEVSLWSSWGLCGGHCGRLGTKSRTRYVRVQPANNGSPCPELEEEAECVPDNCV
Assay: RG1-binding ELISA, RG1 coated on plate, 4-parameter fit
Protocol: RG1-binding ELISA. A bispecific antibody containing Linker 1, anti-RG1 antibody 19G9, and polyclonal nonimmune control human IgG kappa were analyzed for binding to RG-1. Curve fitting of the data was performed using a 4-parameter equation with the Solver function in Microsoft Excel.
Ninety-six well plates were coated with RG1 (1 μg/ml) by overnight incubation, and the plates were then washed (5×) with PBS containing 0.5% Tween-20. Samples and controls (serially diluted) were added to the wells and incubated for 1 hr, followed by washes (5×) with PBS containing 0.5% Tween-20. Horserandish peroxidase (HRP)-conjugated anti-human IgG or HRP-conjugated anti-human Fab were diluted in PBS (1:5000) and added to each well. Following a 1 hr incubation, the plates were washed again. Amplex Red (10 μg/ml) was added to each well, and the signal was read using a plate reader. The data was analyzed using Softmax (Molecular Devices, Sunnyvale, Calif.).

B1: anti-RG1 IgG 19G9 (antibody, V domains shown)
VH: QVQLVQSGGGLVQPGGSLRLSCAGSGFTFSSYVMHWLRQAPGKGLEWVSVIGTGGVTHYADSVKGRFTISRDNAKNSLYLQMNSLRAEDTAVYYCARWGYYGSGSYENDAFDIWGQGTMVTVSS
VL: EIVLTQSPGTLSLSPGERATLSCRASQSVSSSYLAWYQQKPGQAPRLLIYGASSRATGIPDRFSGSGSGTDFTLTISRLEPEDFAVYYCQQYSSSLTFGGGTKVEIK
  IC50: 1.4 nM

Source: US20110229476A1 (Bayer, published 2011)
